Source: patent US20250090677A1 (MULTITUDE THERAPEUTICS, published 2025)

Biological target: T1, mouse CDH6-ECD-His (mouse, UniProt P97326 54-615)
T1 construct: extracellular domain; Bought protein; not shown: His tag
T1 sequence (looked up): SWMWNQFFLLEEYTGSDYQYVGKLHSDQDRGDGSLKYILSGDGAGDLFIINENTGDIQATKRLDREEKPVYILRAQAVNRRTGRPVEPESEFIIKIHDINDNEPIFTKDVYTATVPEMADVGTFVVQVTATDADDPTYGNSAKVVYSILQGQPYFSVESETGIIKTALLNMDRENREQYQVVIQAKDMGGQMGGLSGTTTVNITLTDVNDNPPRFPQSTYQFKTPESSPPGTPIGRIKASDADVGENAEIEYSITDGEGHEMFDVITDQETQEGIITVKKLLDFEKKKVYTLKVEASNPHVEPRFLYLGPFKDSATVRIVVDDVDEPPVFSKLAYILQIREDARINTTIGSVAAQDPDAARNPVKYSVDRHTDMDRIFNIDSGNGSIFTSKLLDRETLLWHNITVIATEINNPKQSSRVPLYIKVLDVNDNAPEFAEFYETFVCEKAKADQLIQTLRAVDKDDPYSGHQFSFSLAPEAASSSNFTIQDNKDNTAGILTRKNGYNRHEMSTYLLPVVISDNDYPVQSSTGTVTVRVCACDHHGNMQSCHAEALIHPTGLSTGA
Assay: ELISA, antigen coated at 1 ug/mL, 3-fold antibody dilutions, HRP anti-human antibody, OD450
Description: CDH9 and […] are the most closely related family members to CDH6. Binding of CL069707-H1L1 on human CDH6, CDH9 and CDH10 ECD domains were analyzed by ELISA Binding Assay. Human […], CDH9-ECD-His and CDH10-ECD-His antigens were obtained from Acro Biosystems, Inc. 100 μL of 1 μg/mL of the antigens diluted in PBS were added to 96 well plates and incubated in 4° C. overnight. The plates were washed 3 times with 300 μL of washing buffer. Then 100 μL/well of 1% BSA blocking reagent were added to the plates, and incubated at 37° C. for 1 h then the blocking reagent were discarded. A 3-fold serial dilution of CL069707-H1L1 was added to the plates and then incubated at 37° C. for 1 h. Then the plates were washed 3 times with 300 μL of washing buffer. 100 μL/well of HRP-conjugated anti-Human antibody diluted in 1% BSA were added to the plates and then incubated at 37° C. for 1 h. The plates were washed 3 times with 300 μL of washing buffer. 100 μL/well of TMB substrate were added to the plates and incubated for about 10 min in room temperature. Then the reaction was stopped with 100 μL/well of stopping solution. OD450 was read with a plate reader and the data were processed.
Binding of CL069707-H1L1 on human, cyno monkey, mouse or rat CDH6 antigen were analyzed by ELISA. Human, cyno monkey, mouse and rat CDH6-ECD-His antigens were obtained from Acro Biosystems, Inc. ELISA were done with the same methods as in example 3.1. CL069707-H1L1 binds to human, cyno monkey, mouse and rat CDH6-ECD-His antigens with similar EC50.

- EC50 (read off the curve): ~0.1 nM
B1: CL069707-H1L1 (antibody, human IgG1, kappa, V domains shown)
VH: EVQLVESGGGLVQPGGSLRLSCAASGFTFTTYAMNWVRQAPGKGLEWVARIRIKNNNYATYYADSVTDRFTISRDDSKNSLYLQMNSLKTEDTAVYYCVRPDYGNYGLAYWGQGTLVTVSS
VL: DIQLTQSPSSLSASVGDRVTITCSASSSISSHYLHWYQQKPGKSPKLLIYRSFYLASGVPSRFSGSGSGTDFTLTISSLQPEDFATYYCQQDIVPLTFGQGTKLEIKR
notes: Humanized IgG1/kappa, produced in 293 cells; also called humanized CL069707-H1L1
